# Results: paper PMC3651167 (PLoS ONE, 2013)
# B1: wild-type hamster PrP 121–231 (domain or fragment)
# chain: not shown
# Target: the molecule itself
# Experiment: SEC
protein,measurement,value
B1,stoichiometry N,8
